# According to US20050249746A1:
# Where “and” joins values, the source holds several entries; their conditions need not be identical. Equal entries are not always repeated.
# Legend:
# [1] = target: wild-type recombinant lipoprotein P4 (rLP4) of non-typable Haemophilus influenzae (non-typable Haemophilus influenzae) (UniProt P26093); assay: ELISA on coated wild-type rLP4; week 0 serum
# [2] = target: wild-type recombinant lipoprotein P4 (rLP4) of non-typable Haemophilus influenzae (non-typable Haemophilus influenzae) (UniProt P26093); assay: ELISA on coated wild-type rLP4; preimmune serum pool
substance,measurement,setting,value
pre-immune mouse serum (antibody),Anti-rP4 ELISA titer,[1],53 titer and 62 titer
same,ELISA titer,[1],53 titer
same,ELISA titer,[2],82 titer and 65 titer
